According to US20160083479A1 (AGENCY FOR SCIENCE TECHNOLOGY AND RESEARCH, published 2016):
No end group written: not given here. *: point of attachment. Biotin = O=C1N[C@H]2[C@H](CS[C@H]2CCCCC(=O)*)N1

Assays:
[1] = target: T1, peptide P19; assay: titration of purified mAb 2 against peptides, ELISA A450; rank order
T1 sequence (peptide, biotin at the N-terminus, linked by the SGSG linker): SGSGQIAEPSQCPDCVVSA

[2] = target: T2, peptide P7; assay: as above
T2 sequence (peptide, biotin at the N-terminus, linked by the SGSG linker): SGSGCIFSPQAEEPSQCPD

[3] = target: T3, peptide P15; assay: as above
T3 sequence (peptide, biotin at the N-terminus, linked by the SGSG linker): SGSGCIFSPQIEEPSQCPA

[4] = target: T4, peptide P10; assay: as above
T4 sequence (peptide, biotin at the N-terminus, linked by the SGSG linker): SGSGCIFSPQIEEASQCPD

[5] = target: peptide O28 (human); assay: as above
[6] = target: T5, peptide P9; assay: as above
T5 sequence (peptide, biotin at the N-terminus, linked by the SGSG linker): SGSGCIFSPQIEAPSQCPD

[7] = target: T6, peptide P20; assay: as above
T6 sequence (peptide, biotin at the N-terminus, linked by the SGSG linker): SGSGQIEAPSQCPDCVVSA

[8] = target: T7, peptide P17; assay: as above
T7 sequence (peptide, biotin at the N-terminus, linked by the SGSG linker): SGSGAIEEPSQCPDCVVSA

[9] = target: T8, peptide P25; assay: as above
T8 sequence (peptide, biotin at the N-terminus, linked by the SGSG linker): SGSGQIEEPSQCADCVVSA

[10] = target: T9, peptide O27; assay: Pepscan / alanine scan peptide ELISA on streptavidin plates, A450
T9 construct: Negative control peptide
T9 peptide: Biotin-SGSGQSEVHCIFSPQIEEP
Description: Variations of peptides O28 and O29, where each amino acid residue was sequentially substituted for an alanine residue, were synthesised. Streptavidin-coated plates (Pierce/Thermo Scientific, #15520) were blocked with 3% BSA/PBS at room temperature. The peptides were dissolved in DMSO and stored according to manufacturer's recommendation. Streptavidin-coated plates were coated with each peptide (5 μg/mL) overnight at room temperature. Wells were washed before hybridoma supernatant or purified monoclonal antibody was added to the each well. HRP-conjugated anti-mouse antibody was added to detect bound monoclonal antibodies. ELISA substrate (Bio-Rad #172-1067) solution was prepared freshly according to the manufacturer's instructions and added to the wells. Colour change was monitored by eye and the reaction was stopped by adding 100 mM sulphuric acid. Absorbance was read at 450 nm in a microplate reader (SPECTRAmax PLUS³⁸⁴, Molecular Device, U.S.A). The crystal structure of c-Met extracellular domain, accession number 1 SHY, was obtained from Protein Data Base (PDB). Computer imaging of the epitopes were analysed by PyMol (DeLano Scientific LLC, U.S.A) software.
Pepscan analysis was used to determine the region of c-Met α-chain bound by mAb 2. […] Binding of the antibody was detected by colorimetric assay and analysed by absorbance reading at […]. […]

B1: mAb 2 (antibody, IgG1, V domains shown)
VH: QVQLKESGGGLVQPGGSLTLSCATSGFTFTDHYMSWVRQPPGKALEWLAFIRNKAKGYTTEYNASVRGRFTISRDNSQNIVYLQMNTLRTEDSATYYCARDGVGIAYWGQGTLVTVSA
VL: SIVMTQSPLSLPVSLGDQASISCRSSQSLENINGNTYLNWYFQKPGQSPQLLIYRVSNRVSGVLDRFSGSGSGTDFTLKITRVEAEDLGVYFCLQVTHVPWTFGGGTKLEIK
notes: Murine monoclonal antibody purified from ascites (or hybridoma supernatant in the first Pepscan); constant regions are not; also called full length murine mAb 2
[1]
  Increase mAb 2 binding in ascending order (rank): 6
[2]
  Increase mAb 2 binding in ascending order (rank): 8
[3]
  Increase mAb 2 binding in ascending order (rank): 10
[4]
  Increase mAb 2 binding in ascending order (rank): 7
[5]
  Increase mAb 2 binding in ascending order (rank): 11
[6]
  Increase mAb 2 binding in ascending order (rank): 4
[7]
  Increase mAb 2 binding in ascending order (rank): 9
[8]
  Increase mAb 2 binding in ascending order (rank): 5
[9]
  Increase mAb 2 binding in ascending order (rank): 3
[10]
  binding result: no binding
